Target: SpyCatcher-elastin-CarHC-elastin-SpyCatcher
Experiment: cell-based or functional assay

free mCherry detected in the supernatant of the AAA+BCB hydrogel, under both dark and bright conditions: 50%
Substance: mCherry

— patent US20190345227A1
